Data on 69 sequences can be found in the domain aggregation screens of Martell et al. (2025).

The data set can be described thus: soluble fraction after stress (log2 fold change); higher = more stays soluble; pooled small domains, quantitative proteomics. Particulars: stress: pH 4. Summed up:
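How much of each domain stays soluble after acid stress, expressed as a fold change, is used to gauge aggregation propensity. Pooled custom libraries of small domains underwent pH 4 stress before high-throughput quantitative proteomics. A higher log2 value means more of the domain stayed soluble.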

As to “HMGPDALSIGRRVRQVRTARGMTLDELAAAVSRAPSQLSMIETGKREPKLSLLQAIARALGTTIDALLT”, the “soluble fraction (log2)” value is 0.126. Then “HMGPDGLFAKFREPETGKDLLITQNVFVEQVLIKGVLTRTLTDAEANTYRAPFVNPEKRFPIYVWPNELP”, with -0.0131; and “HMGPEAFPVPYIVDIELDRAIYVIEQSGFIVGQKLEANDDNVPRGFVISQNPAAGTKLGPNSVVDLVISSG”, with -0.893. Then “HMGPEQLIGKTGIAASELAPRGEVKIEGQIWRAETVGDHVKQGEPVEVVSREGLILRVKPKHPQTRG”, with -0.0209. Then “HMGPEVQLAYSEFLAKVKVGEVNDVMVKGNEIHGHFSDGRTFSTYSPNDPDLVEKLNKNKVMIKAAPP”, with -0.0878. Take “HMGPFYFDQDGKAYSGLLNRNGEILYFADPFNAAVKNTTKTIDGKTYTFNQNGRATSIDGIPLEPP”: the “soluble fraction (log2)” value is -0.17. For “HMGPGDTTIPTTIIGMSLEEARNELSAAGLLVARIIPVDSNSRTGTVLKITPDAGSIIKAGSGVELEIAS”, the “soluble fraction (log2)” value was found to be 0.206.

As to “HMGPGFVGGSVLSGGNRGEGDPVANAQVFITDMDDNVVAFTKTDAEGNFDMTNLAYGDYKMYVDILNK”, the “soluble fraction (log2)” value is -0.741. Then “HMGPGSYVVNVKPYAYVSINGRDYGRTPVGPIRLDPGTYKVVFTHEHRPSFSRTIVVEAGRETFETFPYPG”, with -0.107; and “HMGPLPIDSRYFNNLVPYTGITHVNSVIPEAERHIGLTVVVKTGSTYSEYWYRTGVTNSSLELKT”, with -0.726; and “HMGPLYARVKAIVLARIMGGDWPPGTALPAEMELARALGVSQGTVRKALDALTAEQVVVRRQGSGTYVAE”, with -0.158. For the sequence “HMGPNYYDILEIPTDASPSEITQAFRKKALEWHPDKNPNNLEEATSRFIEIVEAYRVLSSKDSKLQYDTG”, the “soluble fraction (log2)” value was -0.422.

Turning to “HMGPSVGMTVGEMERDLIFRTLETVGDNRTKAADMLGISIRTLRNKLNEYREAGFEWPRKAG”, the “soluble fraction (log2)” value is -0.0611. In the case of “HMGQAVTMLKAGRLLANAKGTGAPVRSLEPGMLLYPTGVKEGTMWEVEDEMGNKGWVNSTLMETA”, the “soluble fraction (log2)” value was -0.284. Then “HMGQAVTVPELKGLSFDEAIEKLDDAGLKYEVVDSNYVEDMKPGTVFETLPEAGSRVKPRRIVFLTINAF”, with -0.689. Then “HMGQDTTIVVRRGESLLGIAARLLPATDFYTTGELAEGIRTASGMENDRLIPGQTLRVPLNSG”, with 0.0588; and “HMGQGEISVPRLEGLSLRETSELLGLFGLRLEAAGSGIALSQNPPAGARVKAGDVIQVDFGEPGN”, with 0.0931.

For “HMGQHSAELKLHPQDLGQVTISMKVEDNQAQLQMVSGHGHVRAALEAALPQLRSQLADSGIQLTQSSIS”, the “soluble fraction (log2)” value was -0.223.

Regarding “HMGQISDEETLKTVASRIIDANPDEARKYRSGKTGLLGFFVGQVMKATQGEANPKLASRIVKELLE”, the “soluble fraction (log2)” value is at least 0.43. Then “HMGQLIVTIPNFERRPAEQAIQKLEELGLVPEEKQIYHDDIPAGSVIYTDPSKDSQVNAGTKVYVYVSLG”, with -0.0832; and “HMGQMGHAVVAKTDLAVGTPLTRDLVAVREVPVEWLHSSAITPEQFERAAGAVLAQPARGGEPLVWSQLEE”, with -0.201. Then “HMGQPRPLTAEDFDFLSDDEIAEMRKALSNGEMLRLRELIAQIGEKRPFLAERLLVLAKQYNYEDLSRLLE”, with -0.831.

Consider “HMGQQPPVTEIYKNHDGNKDGLLEAGEVTGSRYARQFPRWDVNGDQKVSPQEVIAFRKRFGIAADGTLL”, for which the “soluble fraction (log2)” value was 0.0862. On to “HMGQQTVEPLSRRELEVLSLLAKGLSNQQIADRLVISVRTVKKHVENIHGKLGVQSRTQAVARARELGLV”, for which the “soluble fraction (log2)” value is -0.688. Then “HMGQTYTITINPTPADAKVIIDGVATNSVEAIDGRTLIWSVSKPGYLTKSGNYTVTGKNETLNIVLKEDPD”, with -0.283. Consider “HMGQVLEGVFRRKANGKNAFIPDGGGEPILVAERNSAHAMDGDRVKATLLARRKHHVREAQVTEILKRSSK”, for which the “soluble fraction (log2)” value was 0.0841.

As to “HMGQVSDENQLNKVIDEVIKNYPIQVEQFKAGKEPILQFLKGMVMKATEGSADPAVAEKLLRKKL”, the “soluble fraction (log2)” value was found to be 0.0192. Then “HMGQYLDAATVAAVYHAYHARNWTQATLAKELKVARPTLSNVLNGREAPSVELAARIRAFLGSPEP”, with at least 0.43; and “HMGRAAEETETFRTQGELDARIKELQGQMRDAAANLEFERAAGLRDTLKRLRTRGLGLSASP”, with -0.0313. Then “HMGRENGTVKWFNTSKGFGFITRDDGGDVFVHFRSIQGEGHRALQEGQRVSYVVANRDKGLQAEDVTILN”, with -0.107; and “HMGRKRLADYGLNDTEQKIVRKIADGLSNREIAQALYLSEGTVKNYITDILGKLELRDRTQIAIFYLREIG”, with -0.244; and “HMGRLTTKIVLYDRIENIVPERRKELVADIEKRIGVKVEVLEIGHVDFVRDAAWLKVSYYLAPGE”, with -1.35. Then “HMGRNSTPKEPLKKFEVSPITEKEVRILDGRFGPYITDGATNVTVPKTITIEEITFERALDMLAEKAAKGP”, with -0.153; and “HMGRPQISDELRNAIIEVAKDNRDWGYIRIQGQLKYLGYRVSTATIGKVLKKAGLEPQPDRRRK”, with -0.667. “HMGRPWRIGDVVNVSRPTGDGGGFTKGLITRIYPTTVQVTWNPDLQHARPWTTMEKKQYLIFVYHDDE”: the “soluble fraction (log2)” value was at least 0.43. Then “HMGRQTITLPDFSGQDLEQVKARLTEWGLVPEEKSVFSDSVPLGSVVRTVPAEGDEVSVGDTVTVYKSLGR”, with 0.252.

For the sequence “HMGRRDLSWQPAAGGVSIDGLKAGEAWTLFGLNGRILKQGYAPEGQMSLAVNAGLFVLRGAESGVIRIAVA”, the “soluble fraction (log2)” value is -0.255.

As for “HMGRSYTIKSGDTLWAIATRYYGNGAQYSKIYNANKGTIESVAKSRGFRSSQNGHWIFPGTSITI”, the “soluble fraction (log2)” value is 0.056. Then “HMGRTITVGIAEDADIKDIAKMLEEKGLISDYRLFVVQELLSAQHDKIKPGIYDLSTDMKAEEMLEILAG”, with -1.33; and “HMGRTKEEIFNILKERIVTLQYEPGKILNEIELSEEFEVSRTPIRTVFQQLEAVKLVSIVPRYGVQVA”, with -1.11; and “HMGRYATVPDVVGSTPEVARELIRSEGLRYVLSEETVYSDSDTGTVGRTDPESGTRMSADDEVVVYLS”, with -1.27. Then “HMGRYVIQIASFSSKNNAIEAADKLGGFVVQSGRFYRVRTGPFATRGEADAALASARRVGYRDAFIDTS”, with -0.233; and “HMGSAIAHAIASLPDRYRELLLLKYDTGYSEKEIAQLLGMTEANVKKTIQRAKAKLQTLLDEMEA”, with -0.354; and “HMGSAKAQLYDLMNAHQVTRNQIQDIVAEKGYFPAGTPIENYPDDFVKGVLVGAWDQVHKAILDKEI”, with -0.437. Then “HMGSEISLNAFNIPKGSVSVTAGGTKLVENQDYTVDYTLGRIKILNEGILNSGVPIQVNFENNTLFN”, with -0.087; and “HMGSEYILTIIPTPADATVFINGVKKNSASGVNGQILSWEVTKEGYIPQSGTFTINGKNETIEVVLQPQT”, with -0.577; and “HMGSFFSKATAPVRTTGGDGLYKHGSIWFNTSTGRLFVYIPDDRYTGLLDTHNGDIGYWVDVS”, with -1.22.

On to “HMGSFGAMLKRNRKLAGLTQEQLAEKLDVSTVAVQNWESGKNQIRSEKLTKLSYLFNIPLETLIHEMLIS”, for which the “soluble fraction (log2)” value is 0.0247. Then “HMGSFISADEALAKALSHAGLDQSAIRELEMDSELDDDVPHYSIDFKSGNLEYEYEISATDGSVLKFEQD”, with -0.0935.

Consider “HMGSKEQELVILNNILERQLQAINLQKSAAGPMVNLRNVHNTLTKLVEAAGLKNVETYFTDPVIGAAQ”, for which the “soluble fraction (log2)” value is -0.543.

Take “HMGSNTLEDAYKVLGITPDATDDEVRKAYKKMVIQHHPDKVANLGEDVKKAATIKLQEINNAKEIIFKARN”: the “soluble fraction (log2)” value amounted to 0.192.

Take “HMGSQSYVAIVNERFKESDIVELGGSVGSRTGDIITLHFRNSSPNELKNITGIVYLQVANKVTPKL”: the “soluble fraction (log2)” value is -0.875.

For “HMGSTDTLEDALEAAEKISYPVIIKATAGGGGRGMKVASSLEELKKVYHTTKLEAKNAFGNDQVYIEKYL”, the “soluble fraction (log2)” value was -0.0649. Then “HMGSTYGISRVDNETSRTHGWLVTIQRRGVIYRKHFSDGVFGGKQRSFAAAKEYRDEVIAAHP”, with -0.00453; and “HMGSVVATLRKLIIDGHYPAGTRLAEIPVANALGVSRTPVRLAFRTLQQEGLLQTVGKRGIVVRAF”, with 0.137; and “HMGSWDDFFNAIRLDNPNTLQALLQRGFDPNTVDQQGTPALMRALQEQSYRAAEVLADHPQI”, with -0.584. Then “HMGTAGLSPWHKIAVLMIALGPEGASELMRHFGEDEVEQVVQAIADLKNVPSELQDAVLLEMEGALQEG”, with -0.796. Then “HMGTDVFIMTGGTRKRGATWSYYFDLGKIDGKRQKKEKGGFKTKKEAETALAKAINEYNNAGA”, with 0.175; and “HMGTFIATVEANSLDIYKSMSSNETIGKANKGEVFQILEDMGSGYARVSYNDVEGYLSIRDGDATIEE”, with -1.54; and “HMGTGADQVSWKTGDKVTHKKWGEGTVVKVSGSGNDKELDIAFPQQGVKRLLASFAPIKKVT”, with -0.0102. As for “HMGTGQTNEKLAVLTNIQKTQEQILLTLGAKNPLVNLKQYRETLAKILSLSGYKNSNEFFLDPM”, the “soluble fraction (log2)” value is -0.25. Then “HMGTGTYQVWSANGLGVRMRSGPGTGYRILAVYSVGTSVTVLQKGAYWSYIRVGSRTGYMMNQFLVSG”, with -0.268. Then “HMGTGVEQGKQYRTLKRDFDGASGIKVNGDFYRLRTSDTGMTELPAGTEVTFERFDGTTAVVHT”, with 0.196; and “HMGTHPGIDSGIISDILALKKELPTRSAAKIITMLTLAGKMEENSIHVKTVNRILYQYGYTRDTLS”, with -0.222. Then “HMGTITKRTNPSGAVVWRAQIRINKADMPTYSESKTFSKKSLATEWLKRREAEIEANPDLIL”, with at least 0.43; and “HMGTKDVNAAPSAVGRTYDEAIEILNGYKAGYLEEYSDTVPKGTVISQSVQDGQVVIVVSLGPKPS”, with -0.18; and “HMGTKVGAPLPGTITEVKVKVGDTVKAGDAVIILEAMKMQNNIEAEVSGTVSSVLVKEGDTVMEGDALITI”, with -1.18. Turning to “HMGTLNLSQAYREWGMAEIEANRDYYGPVRFDDIAFQMSPAGQQLQARFVASYADRLHDAIEGEL”, the “soluble fraction (log2)” value was -1.68. Then “HMGTLRPKGTVVFANLPIAADAKEGDMYNISDQFTTTASFKEGAGNVIPAGSNVYRTDDGFWDVL”, with 0.193.
